{
  "source": "patent US20110243928A1",
  "about": "(published 2011)",
  "binders": {"B1": {"name": "monoclonal antibody 6A1 (antibody, IgG1, V domains shown)", "VH": "EIQLQQSVAELVRPGASVRLSCTASGFYIKDTYMHWVIQRPEQGLEWIGTIDPANGNTKYVPKFQGKATITADTSSNTAYLRLSSLTSEDTAIYYCARSIYDDYHYDDYYAMDYWGQGTSVTVSS", "VL": "DVLMTQTPLSLPVSLGDQASISCRSSQNIVHINGNTYLEWYLQKPGQSPKLLIYKISDRFSGVPDRFSGSGSGTDFTLKISRVEAEDLGVYYCFQGSHVPWTFGGGTKLEIK", "notes": "also called 6A1 parental mAb; parental mouse mAb 6A1"}, "B2": {"name": "L1+A1 (antibody, human IgG1, kappa, V domains shown)", "VH": "QVQLVQSGAEVKKPGSSVKVSCKASGFYIKDTYMHWVRQAPGQGLEWMGTIDPANGNTKYVPKFQGRVTITADESTSTAYMELSSLRSEDTAVYYCARSIYDDYHYDDYYAMDYWGQGTLVTVSS", "VL": "DIVMTQSPLSLPVTPGEPASISCRSSQNIVHINGNTYLEWYLQKPGQSPRLLIYKISDRFSGVPDRFSGSGSGTDFTLKISRVEADDVGIYYCFQGSHVPWTFGQGTKLEIKR", "notes": "Humanised 6A1, VH construct A1 and VL construct L1, human gamma1 wild type / kappa constant regions; also called A1L1; humanised anti-IL-13 mAb L1+A1"}},
  "key": {"[1]": {"molecular_target": "T1, E. coli-expressed recombinant det-1 tagged human IL-13 (human, UniProt P35225 35-146)", "T1 construct": "also called Det-1 tagged human IL-13 (made in-house); not shown: det-1 tag", "T1 sequence (P35225 other isoform, or with tags, fused parts or gaps)": "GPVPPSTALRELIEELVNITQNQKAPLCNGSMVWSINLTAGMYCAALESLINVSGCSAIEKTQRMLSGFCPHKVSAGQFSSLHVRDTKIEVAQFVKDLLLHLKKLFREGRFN", "experiment": "competition ELISA: inhibition of det-1 tagged human IL-13 binding to human IL-13Rα2-Fc"}, "[2]": {"molecular_target": "T2, 16mer biotinylated human IL-13 peptide number 24 (human, N-terminal biotin; C-terminal amide)", "T2 construct": "format Biotin-SGSG-PEPTIDE-amide; also called Peptide 24", "T2 peptide": "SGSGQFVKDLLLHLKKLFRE", "experiment": "BIAcore analysis 3, antibody over biotinylated peptide on SA chip", "experimental": "Completed for the 16mer biotinylated human IL-13 peptide number 24 (identified as the linear binding epitope for parental mAb 6A1, see section 6.7). Note that the absolute KD values obtained for binding to peptide ligands are often quite different to those seen for binding to whole protein targets.\nThe kinetics analysis was performed on a Biacore 3000 machine using direct binding of antibody to immobilised IL-13 peptide. Briefly, IL-13 biotinylated peptide was captured using a Biacore SA (strepavidin) Biosensor chip. The antibodies were then passed over the sensor surface at various concentrations. The subsequent binding curves were analysed with Biacore analysis software BIAeval 4.1 to determine kinetics. The experiment was carried out using Biacore HBS-EP buffer"}, "[3]": {"molecular_target": "T1, E. coli-expressed recombinant det-1 …", "experiment": "competition ELISA: inhibition of det-1 tagged human IL-13 binding to human IL-13Rα1-Fc"}, "[4]": {"molecular_target": "T3, native (PBMC derived) human IL-13 (human, UniProt P35225 35-146, limits assumed)", "T3 construct": "IL-13 in supernatant of stimulated human CD4+ Th2 cells; also called native human IL-13; Native IL-13", "T3 sequence (P35225 other isoform, or with tags, fused parts or gaps limits assumed)": "as the sequence (P35225 other isoform, or with tags, fused parts or gaps) above", "experiment": "ELISA on Th2 cell supernatant read against a standard curve"}, "[5]": {"molecular_target": "T4, alanine scanning peptide 64 (human, N-terminal biotin)", "T4 construct": "the entry already carries the change; also called K104A peptide", "T4 peptide": "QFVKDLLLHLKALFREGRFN", "experiment": "alanine scanning peptide ELISA, n=2", "source_text": "(§1) An ELISA method was used to detect binding of immobilised biotinylated peptide to the parental mAb 6A1 and L1+A1.\n(§2) This was to determine if there was any major plate-to-plate variation and in both cases, there was no apparent variation."}, "[6]": {"molecular_target": "T5, alanine scanning peptide 66 (human, N-terminal biotin)", "T5 construct": "the entry already carries the change; also called F106A peptide", "T5 peptide": "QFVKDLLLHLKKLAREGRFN", "experiment": "alanine scanning peptide ELISA, n=2", "source_text": "as §1, §2"}, "[7]": {"molecular_target": "T6, alanine scanning peptide 1 (parental sequence peptide) (human, N-terminal biotin)", "T6 construct": "also called parental peptide", "T6 peptide": "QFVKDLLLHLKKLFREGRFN", "experiment": "alanine scanning peptide ELISA, n=2", "source_text": "as §1, §2"}, "[8]": {"molecular_target": "T7, alanine scanning peptide 62 (human, N-terminal biotin)", "T7 peptide": "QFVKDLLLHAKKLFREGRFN", "experiment": "alanine scanning peptide ELISA, n=2", "source_text": "as §1, §2"}, "[9]": {"molecular_target": "T8, alanine scanning peptide 63 (human, N-terminal biotin)", "T8 construct": "the entry already carries the change; also called K103A peptide", "T8 peptide": "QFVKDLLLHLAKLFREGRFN", "experiment": "alanine scanning peptide ELISA, n=2", "source_text": "as §1, §2"}, "[10]": {"molecular_target": "T9, alanine scanning peptide 67 (human, N-terminal biotin)", "T9 construct": "the entry already carries the change; also called R107A peptide", "T9 peptide": "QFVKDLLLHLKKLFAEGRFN", "experiment": "alanine scanning peptide ELISA, n=2", "source_text": "as §1, §2"}, "[11]": {"molecular_target": "T10, alanine scanning peptide 65 (human, N-terminal biotin)", "T10 construct": "the entry already carries the change; also called L105A peptide", "T10 peptide": "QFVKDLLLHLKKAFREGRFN", "experiment": "alanine scanning peptide ELISA, n=2", "source_text": "as §1, §2"}, "[12]": {"molecular_target": "T11, alanine scanning peptide 68 (human, N-terminal biotin)", "T11 peptide": "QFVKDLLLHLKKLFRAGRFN", "experiment": "alanine scanning peptide ELISA, n=2", "source_text": "as §1, §2"}, "[13]": {"molecular_target": "T12, E. coli-expressed recombinant human IL-13 (human, UniProt P35225 35-146)", "T12 construct": "Untagged E. coli-expressed human IL-13; also called hIL-13; human IL13 (CA)", "T12 sequence (P35225 other isoform, or with tags, fused parts or gaps)": "as the sequence (P35225 other isoform, or with tags, fused parts or gaps) above", "experiment": "human IL-13 binding sandwich ELISA"}, "[14]": {"molecular_target": "E. coli-expressed recombinant Q130 human IL-13 (human, UniProt P35225 35-146, limits assumed)", "sequence (P35225 35-146 limits assumed)": "as the sequence (P35225 other isoform, or with tags, fused parts or gaps) above, with R110Q counted along it", "experiment": "cell-based or functional assay"}, "[15]": {"molecular_target": "T12, E. coli-expressed recombinant human …", "experiment": "cell-based or functional assay"}, "[16]": {"molecular_target": "mammalian-expressed (CHO cell) human IL-13 (human, UniProt P35225 35-146, limits assumed)", "sequence (P35225 other isoform, or with tags, fused parts or gaps limits assumed)": "as the sequence (P35225 other isoform, or with tags, fused parts or gaps) above", "experiment": "cell-based or functional assay"}, "[17]": {"molecular_target": "T13, E. coli-expressed recombinant cynomolgus IL-13 (cynomolgus, UniProt Q5I6E4 21-132 (Macaca thibetana entry))", "T13 chain": "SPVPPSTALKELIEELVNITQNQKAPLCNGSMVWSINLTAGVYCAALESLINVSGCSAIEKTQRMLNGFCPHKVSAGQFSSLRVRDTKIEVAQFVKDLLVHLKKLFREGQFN", "experiment": "cell-based or functional assay"}, "[18]": {"molecular_target": "T13, E. coli-expressed recombinant …", "experiment": "cynomolgus IL-13 binding sandwich ELISA"}},
  "data": [
    {"binder": "B1", "values": [
      {"measurement": "IC50", "setting": "[1]", "result": 0.02, "unit": "µg/mL"},
      {"measurement": "Kd", "setting": "[2]", "result": 3.11, "unit": "nM"},
      {"measurement": "koff", "setting": "[2]", "result": 0.000915, "unit": "s⁻¹"},
      {"measurement": "kon", "setting": "[2]", "result": 295000, "unit": "M⁻¹ s⁻¹"},
      {"measurement": "IC50", "setting": "[3]", "result": 0.039, "unit": "µg/mL"},
      {"measurement": "Native IL-13 (ng/ml) detected in Th2 supernatant", "setting": "[4]", "result": 22.5, "unit": "ng/mL"},
      {"measurement": "Average A490", "setting": "[5]", "result": 1.47, "unit": "A490"},
      {"measurement": "Average A490", "setting": "[6]", "result": 3.6, "unit": "A490"},
      {"measurement": "Average A490", "setting": "[7]", "result": 3.54, "unit": "A490"},
      {"measurement": "Average A490", "setting": "[8]", "result": 3.49, "unit": "A490"},
      {"measurement": "Average A490", "setting": "[9]", "result": 3.28, "unit": "A490"},
      {"measurement": "Average A490", "setting": "[10]", "result": 0.595, "unit": "A490"},
      {"measurement": "Average A490", "setting": "[11]", "result": 3.85, "unit": "A490"},
      {"measurement": "Average A490", "setting": "[12]", "result": 3.58, "unit": "A490"},
      {"measurement": "EC50", "setting": "[13]", "result": 0.049, "unit": "µg/mL"},
      {"measurement": "Mean ND50 for 2 assays", "setting": "[14]", "result": 0.213, "unit": "µg/mL"},
      {"measurement": "Mean ND50 for 2 assays", "setting": "[15]", "result": 0.193, "unit": "µg/mL"},
      {"measurement": "Mean ND50 for 2 assays", "setting": "[16]", "result": 0.44, "unit": "µg/mL"},
      {"measurement": "Mean ND50 for 2 assays", "setting": "[17]", "result": 0.078, "unit": "µg/mL"},
      {"measurement": "EC50", "setting": "[18]", "result": 0.039, "unit": "µg/mL"}
    ]},
    {"binder": "B2", "values": [
      {"measurement": "IC50", "setting": "[1]", "result": 0.113, "unit": "µg/mL"},
      {"measurement": "Kd", "setting": "[2]", "result": 9.03, "unit": "nM"},
      {"measurement": "koff", "setting": "[2]", "result": 0.0017, "unit": "s⁻¹"},
      {"measurement": "kon", "setting": "[2]", "result": 195000, "unit": "M⁻¹ s⁻¹"},
      {"measurement": "IC50", "setting": "[3]", "result": 0.044, "unit": "µg/mL"},
      {"measurement": "Native IL-13 (ng/ml) detected in Th2 supernatant", "setting": "[4]", "result": 25.1, "unit": "ng/mL"},
      {"measurement": "Average A490", "setting": "[5]", "result": 1.82, "unit": "A490"},
      {"measurement": "Average A490", "setting": "[6]", "result": 2.84, "unit": "A490"},
      {"measurement": "Average A490", "setting": "[7]", "result": 2.85, "unit": "A490"},
      {"measurement": "Average A490", "setting": "[8]", "result": 2.83, "unit": "A490"},
      {"measurement": "Average A490", "setting": "[9]", "result": 2.65, "unit": "A490"},
      {"measurement": "Average A490", "setting": "[10]", "result": 0.816, "unit": "A490"},
      {"measurement": "Average A490", "setting": "[11]", "result": 3.02, "unit": "A490"},
      {"measurement": "Average A490", "setting": "[12]", "result": 2.81, "unit": "A490"},
      {"measurement": "EC50", "setting": "[13]", "result": 0.018, "unit": "µg/mL"},
      {"measurement": "Mean ND50 for 2 assays", "setting": "[14]", "result": 0.438, "unit": "µg/mL"},
      {"measurement": "Mean ND50 for 2 assays", "setting": "[15]", "result": 0.428, "unit": "µg/mL"},
      {"measurement": "Mean ND50 for 2 assays", "setting": "[16]", "result": 0.975, "unit": "µg/mL"},
      {"measurement": "Mean ND50 for 2 assays", "setting": "[17]", "result": 0.078, "unit": "µg/mL"},
      {"measurement": "EC50", "setting": "[18]", "result": 0.021, "unit": "µg/mL"}
    ]}
  ]
}
